Reference: the DeepSol protein solubility set

Test: soluble on expression in E. coli; label from the status in PepcDB or PDB records

Row | Sequence | soluble on expression in E. coli
1 | MTEKVSRFPGVFPLIVIGVPGSVDKTHKKLAFAPNLNRWRDIDVEKYFKVFEVYLENDANLAALAEMMRNKHFGDRKNIVYILVREGIGGGIIIEGKLYKGSFNAAGEIGHMKMYDRGPCFCGRVGCWEANTSISHCVRQYEKKKPLPGNTMYEKFETLCRIYEEDPLAKEVLDEFTGILIDGIVNLVNILSPEIVIVGGEGVFLPESVFEVIVSETRRQVHPMDKEVSVEKGSLSNKEVVLEGTSILSSMMISERLV | soluble
2 | MTENCCVPGGTVMILSCSGGSNVGQLSNQAAVELTREGVGKMFCLAGIGGQLSGFVQSARDVPEMVTIDGCSVGCAKAILEKARVPLKSYLVLTDLGIEKNKNFELSSHDIRRVKEAVKALLFEK | soluble
3 | MTEPTVARPDIDPVLKMLLDTFPVTFTAADGVEVARARLRQLKTPPELLPELRIEERTVGYDGLTDIPVRVYWPPVVRDNLPVVVYYHGGGWSLGGLDTHDPVARAHAVGAQAIVVSVDYRLAPEHPYPAGIDDSWAALRWVGENAAELGGDPSRIAVAGDSAGGNISAVMAQLARDVGGPPLVFQLLWYPTTMADLSLPSFTENADAPILDRDVIDAFLAWYVPGLDISDHTMLPTTLAPGNADLSGLPPAFIGTAEHDPLRDDGACYAELLTAAGVSVELSNEPTMVHGYVNFALVVPAAAEATGRGLAALKRALHA | soluble
4 | MTEQKNKTSLIEFPCTFPLKVMGAVHPEFEQAVLDTVRLHAPDTQAHHITTRPSSKGNYTGATVQVKVENQEQLDNIYRALTSHELVKVVL | not soluble
5 | MTEQQKFKVLADQIKISNQLDAEILNSGELTRIDVSNKNRTWEFHITLPQFLAHEDYLLFINAIEQEFKDIANVTCRFTVTNGTNQDEHAIKYFGHCIDQTALSPKVKGQLKQKKLIMSGKVLKVMVSNDIERNHFDKACNGSLIKAFRNCGFDI | not soluble
6 | MTEQYYKIALLFNANKVYDRQVVEGIGQYIQASQCMWDIFVEDEFIYHTDTINQLSIDGIIADFDDPKTVELLQHTLIPTIAVGGSYKQADFYPHFPYIATDNMALVEMALSHLQEKGLSQFAFYGLQVNTHKHWSIERRDAFVELMEKNHYPIYLYEGVQVHAQNWLEEQQKLIVWLKSLPSHTGIIAVTDARARHLLQACEYSKIAVPEELCVVGIDNEELIQYLSRMSLSSVEQGTREIGYQAAKLLHKLLNGQKVSHTPILIPPITVHSRNSTDYRSLTDPLVIQAMHYIRHRACHRIKVGQVLDHLETSRSNLEQRFKNEMNKTIHQVIHEEKISRAKNLLQQTDISIKEITEICGYPSIQYFYSVFKKEFEMTPKEFRLNC | not soluble
7 | MTESEVRKLLRQMKELDSQTAFRDFYNMTYDRLFRIAYYYVKQEEWSQEIVLDIFLKLWKQRDTLLDVKNIEDYCFILVKNASLNYLEKESKYTTIHSDSLPEPQEQSYSPEESLISEELFAIYVKALDRLPERCREIFIRIREEKQSYAQVAEELDISIKTVDAQLQKAVSRLKEMISSSG | not soluble
8 | MTFAPGFSGGLSPAYRLGSRRSPSPFSEEVRAEEGPGAGGFSQVFHTPCLCLGTMRWKSVLGLAVLLLASLALAQALTLDLRPYLVKVVEGKEVYEANPLAVRPGDVLEWRLVAENRAQGDLRQVALVIPIPKETYYLEGSAKPLQVGGTIVPPEFSFDGGKTFGRPPLKKRIRVVENGKEVEKEVEVKPEEYTHARWVIPVLSKGDKVMVSLRTIVR | soluble
9 | MTFEDLHEYLDYLAKKNDLVTITEEVDPNLDLTYILSEEERMGRGRTILFKNVKGSQVPAVGNLFSTNEKLKAVLGDDPYSIGVKIADIVKPPRDSESFIGKGLEMMRELSGLRPKVSNSIPSGYSELEKVDLYRYPICKTWPDDGGPFITLPLVITKDPSTGIRNMGMYRMQVYDSETTGMHWHIHKGGSENFLKEKEKGKAMDVAVVIGSDPLTIFSAVAPLPNGIDEFMFRGLISRKRSELVKGKTVDLEYPRNFEIVLEGYIDPSETRVEGPFGDHTGYYSLEEEFPVFHVKNIIERNDRIYPTTIVGKLWHEDVVLGKAVERMFLPLIQMVLPEVVDINTMEEAVFHNMVIVSIKKRYPGHAKKVMFALWGLGQLMFSKIIVVVDDDINIHNRKELIWAMTTRIDPDRDVIIIPGTVTDSLDHAAPLFNYGSKMGIDATKKDKSEGYTRRWPDVLEMPKDVVDKVRQIMKNNRLIQLEHHHHHH | not soluble
10 | MTFELKYTDRSYLPDQFKAISGNPPVEWKVTNNLVEYPEALRYMQERVENILAQNAHEQVWLLEHPSLYTAGTSAKKKDLLTPHLFPVYEAGRGGEFTYHGPGQRIAYIMLDLKRRRQDIRAFISALEEWIIQMLAKFNIKGERREDRVGVWVQRHSCQSTQNSLYSEDKIAAIGIRVRKWVSFHGVSINVDPNLAHYSGIVPCGITNHGVTSFLDLGLPTKMHDIDIALKQSFEQIFGPIIDIS | not soluble
11 | MTFTPPEFKILSVNTRNLETIFSTLLGRYKIITDPPVSEAVSSGEIIRNTLETLLARTHKVVICKTDRETARDVFKQLSNELREVLKENNEEKNKQAILFLLGALLHRYFRLIKEYDNFNSYIPYPSFLFSKPPSNVKDCRLFQAIRLALGLPEVMERNYRINDLKILDVTTIVTALETFRDNMQLIVGKDEGKMPRYKSYPHFAADKNFETYLQEIIDEHKRRNPVVLNQFKAINFIQSLVKQIEEEQRQIEEALTHLGKFLPKTCSDFKTISLELMEEQIKAQIESNVLQEKIIDLLYTGHIQENFSTMDCGSFIEAMKNCNSSLARYRALGGYCLLLQNEGVKEQLRFCIHQALGVEINPNELTDKDMLDAIRLLKTYFEANPKVELNFDFFNGKGSMNTFILQTELALAKKVQTVNKAQEDNSETRTTSLFV | not soluble
12 | MTGALNQAQKTPWRYGFLNLMRRVDAQLCDTPAGSIWQPRMEKFRLGQTPTMTFAPREIAQVSWQDGRLHLSLYSLGLWGPNGPLPLHYTELALNRSESRHDPTLVHFSNIFHHRWLTQFWQAWRSAQSAGGGLDKPEHDRFAFYIASLSGQDLRESAESPLSDHVRLAASAHLVRESRNPDGLAATLAHYFSVPFAVKEFALHWITVANDEITRLGTPAQSSVLGNGALIGQAVPDMQYKFRLIIGPLTLEDYLRFLPGGNNLPVLTELVRTFIGFEYCWEIELQLKPHAAPPAVIGGAQRLGWTAWAGKAMHDRPVTGMIFEPEHGLTH | not soluble
13 | MTGGTGADAASAGASSTRPELRGERCLPPAGPVKVTPDDPRYLNLKLRGANSRFNGEPDYIHLVGSTQQVADAVEETVRTGKRVAVRSGGHCFEDFVDNPDVKVIIDMSLLTEIAYDPSMNAFLIEPGNTLSEVYEKLYLGWNVTIPGGVCGGVGVGGHICGGGYGPLSRQFGSVVDYLYAVEVVVVNKQGKARVIVATRERDDPHHDLWWAHTGGGGGNFGVVTKYWMRVPEDVGRNPERLLPKPPATLLTSTVTFDWAGMTEAAFSRLLRNHGEWYERNSGPDSPYTGLWSQLMIGNEVPGMGESGFMMPIQVDATRPDARRLLDAHIEAVIDGVPPAEVPEPIEQRWLASTPGRGGRGPASKTKAGYLRKRLTDRQIQAVYENMTHMDGIDYGAVWLIGYGGKVNTVDPAATALPQRDAILKVNYITGWANPGNEAKHLTWVRKLYADVYAETGGVPVPNDVSDGAYINYPDSDLADPGLNTSGVPWHDLYYKGNHPRLRKVKAAYDPRNHFHHALSIRP | soluble
14 | MTGHRPACPPIPADVYTRLERRIGRCHLNQRLGIEHDFEARIFGQGRTFFHIENWNRLHTLLRRLLKLSLLYRPGQRAARRIEIRRNEFTLPHLPEAFEGYTLLHISDLHLDMAGDLPDALIRAIGQAGHYDACVLTGDFRARTFGPYRGAIDGLAQVRTHIDKPVFAILGNHDTIRMTPEIEDLGIGVLLNEAREIRQDGASIFLAGVDDPHYYRADNIEKAADPIPQGAVSILLSHSPELYRHAAYADFDIMLCGHTHGGQICLPGGIALTLNARCPRAFGRGYWRYHRMQGYTSAGSGVSILDIRLNCPPEITLHRLSRHRLSKGGCECGGGKGLEHHHHHH | soluble
15 | MTGKLYGNKDNFRTQKVLIAAKLANKTVTLAGDAAPADKFPLGVTPAFEGDALLFGAESIGLHLTGTSANAETVQWLQFAEGYLLPAVLGYVLPSVSAANFDKKTVEQYKNELNGQLQVLDRVLVKKTYLVGERLSLADVSVALDLLPAFQYVLDANARKSIVNVTRWFRTVVNQPAVKEVLGEVSLASSVAQFNQAKFTELSAKVAKSAPKAEKPKKEAKPAAAAAQPEDDEPKEEKSKDPFQDMPKGTFVLDNFKRSYSNEDTATKAIPHFWENFDADNWSIWKCEYKYPEDLTLAFMSCNLINGMYQRLEKLKKNAFASMILFGTDNNSTISGIWVWKGDKLAFELSPDWQVDYESYTWTKLDAKSDATKKEVNEYLMWEGDFGGKKFNQGKIFK | soluble
16 | MTGSATRFGGSPGPVFALEKGERVEQMKLFKTYKEQVELLGQRGMQIDNSERAEKLLAQLNYYRLSGYWYPMRRFSPQNGIAQDEFVDGASFDLVVALYEFDERLRHSVFIELDRVELAIQTRLGHELGRLDPLIYLDPQRLGARASQRGKGERTVHEVWIGKYQSALKASKEDFVAHHNSKYGGTLPIWAAVEVMDWGMLSYLYGMSPNIVRKRIAEPCGLTGPQLESWLKSLNILRNYAAHHARMFNRVYDIKPKLNNDPKLTPVANRMNRVFGQLSMIQYLHHQLGLSQADRLTRLFNTYPHNPIVPLSRTGAPENWQELALWVP | not soluble
17 | MTGSCSDLLGFQYNNTVISSATLQETGTLTVANKPIGAHCLVKGYMDQHVSPVDGQTYQIGFEMRLPIDWNGRFLYQGNGGTDGNLVPATGQVGSGGPLTNALHDGFAIISSDAGHNASQNPMFGLDPQARINYGYGAITKLTPMAKNLIKAAYGKLPDRSYAGGTSNGGRHAMIAATRLGDQYDGILASTPGFHLPRAAAAQLYTAQQLRRVATDENDLSTALTLPERKVLAKAILDRCDALDGVTDGLVQDVEACRTAFDIHKHVTVCSSTRDGTCLSTEQIDVLANIYRGPVNSAGQALYATQPFDPGLVGSNWASWKFESSVGTARDPVAVGILFQVPPDPTVTQNSRQFALNFNFDTDYPKLSATNDVYTESSMSFMMPPDELNLDKLRNHGGKMIVVQGTADGVFSVDDTQNWYDQLLQHYKNDAKGTAPEFARFFRVPGMNHTRDGIATDQFDALTALVNWVEYGQAPDKIIATARGAGNPSGQVNTEIPQDWAPDRTRPLCPYPLIARYNGQGDLEHHHHHH | not soluble
18 | MTHAPTTTPLRTAAKLLAAGAAALTLNSCAYDGIKVIVINMFQGEAQPFIDRYDLKEKVYIAGLSPDAPNLLCNYDGICQVTTGMGYANAAATLSALLYRSKLDLTQTYFVIAGIAGIDPGQGTVGSAAWARYAVDYGLSHEIDAREMPAAWPYGYFGIGTKGPGEKPPMNYRTEVFRLNEALLQRAYALSKPVTLEDSPEAIAFRKHYAYAPANQPPAVIQCDVASADTWWAGRNLGQRARDWTKTMTDGKGTYCTTAQEDNATLEVLARGARAGKVDFSRVALLRTGSDFDRPYDGQSAADGLVNYAQQGGFVPATHNLVNAAKPLLDDIVLRWPQWAQGVPANLEHHHHHH | not soluble
19 | MTHNHHHQAVDNLLNVFSRASHDLTVVHSKLDKEFQQMYPANANPMKLIQRIKKLQEDVTLLKHQCLDLLSAKQDLIDKAQTTLVGNCNLIQKMNASLGESTNGDTDDALADFNQIIDEWTMQVRSRTVGETEDADKEDINKMLFSAICHTN | soluble
20 | MTHPFEPFFDKDSKILILGSFPSIKSRQDGFYYQHPRNRFWPILETLFNAKLENITEQQAFLRKKHIALWDVLQSCKIKNSDDKTISYAKANDLNLILSQTKIQAIFTTGQSAYRFFVKFHPRLEAIALPSTSPANLNFSFEQLLQNYEIIKKFTKLEHHHHHH | not soluble
21 | MTHSKDKKSHAFKGIGEKLNPTIYQVRFMKLDEPIRFESFPELKELGDWLSTSTHMWSCHSTMYKYNREEFEKKFLEITKLTADHVLISTGGVGFNFMSPGWRNSL | not soluble
